Laboratory results from PMC1262761, “Expression and cytosolic assembly of the S-layer fusion protein mSbsC-EGFP in eukaryotic cells” (Microbial Cell Factories, 2005).

Target: the molecule itself
Assay: in vitro recrystallisation (self-assembly) seen by electron microscopy (REM, TEM); FPLC-purified mSbsC-EGFP, denatured in Gua-HCl, dialysed against dH2O over night; assembled structures negatively stained with 3% ammonium molybdate pH 7.2

B1: mSbsC-EGFP fusion protein (mature S-layer protein SbsC, aa 31-1099, of Geobacillus stearothermophilus ATCC 12980 fused to EGFP), from E. coli (natural protein, UniProt O68840 31-1099, looked up)
chain: ATDVATVVSQAKAQMKEAYYTYSHTVTETGQFPDIKDVYAAYNKAKQAYANAVAVVNKAGGAKKDAYLADLQAIYETYVFKANPKSGEARVATYIDAYNYATKLDKMRQELKAAVDAKDLKKAEELYHKISYELKTRTVILDRVYGQSTRELLRSTFKADAQALRDRLIYDITVAMKAREAQDAVKAGNLDKAKAALDQVNQYVSKVTDAFKAELQKAAQDAKAAYEAALTPKVESVSAIDSTSFKVTFTKPVDKATAIPKNFSITLKGTETKLYPKSVEVSESGLTATVTLYDTLVDGKTYTVVTSGLKDTAGKEFETSTNEFTYNKPVPASITFNFNKLPEDSAVDLTKYVTVKDAAGNVIKSGFELEFTSSEKLTQGKFINTTGKKSVIVNATVKGTNVTTGNVILAVEDEKAAEVSELKLTKDNKEVVTLYANGNAFDKDGNQISSGTLTLTAKFKDQYGNELTGKVAGTDYTFESLNPEVLVVAPDGSVTPIVPGTALVKVKYGEVTKTIPVTVKANPVLETIAVDSTGVSVAKGQKATFKVTLKDQYGNKFTGNVNVTSDKTETATVSVSNSGIGQSEYTVTVNGVAEGSTTITIKSGTKEVKVPVNVVAGGPVANYQIKVLDDGKIDKSATESPANNDVQLKVYAVDANGNIVGDITNDVTITSEATDTNGVIVNASKSTANGDTVYVITDNGSKKVGKETLTVKLGTVTLGTVDVEVIDTTLKATVVTKKADLIELDAADNGDALAKLLANLDIKDQNGNPMVDSAATPNTNEKLQALKSVLSGIVSSDTSVIGSVSNVDNLKDDASISGLAVKKAGTVTLTLVFNEDSKIAPIAITVKAPAATQDGVTVTGLDLVPGVTGVGKTKFTATDKIKSGHKLYYAVDDSAVPAPAVGTTRNSTKFANEITVGTTEVAANAGQIITVIEVDSSDRVVGYKTFTVEAADLSVAADKTGFTATVTPTGGNQVTTGKTLLAVSDLANGHKLYAAAAGSSAAAAPVKGIAYTDTTVRTTYGTEVTSGTVEVDAQDGQHISIIEVDENGKVVGYKDYTITGIQIGTKSAS
notes: S-layer protein SbsC of Geobacillus stearothermophilus ATCC 12980, mature part, aa 31-1099 (without the 30 aa N-terminal secretion signal); an ATG initiation codon was introduced 5' of the reading frame by the primer; A Met from the introduced ATG precedes residue 31; A two-residue linker (Leu-Glu, from the XhoI site) stands between SbsC and the EGFP reading frame (720 bp, from the Clontech …)
- binding result: binds
